Measurements published in patent US20230002480A1.

What was measured:
Assay in all cases: cell-based or functional assay
[1] = target: HIV-1 Env of pseudovirus X2131_C1_B5 (clade G) (HIV-1)
[2] = target: HIV-1 Env of pseudovirus 6952.v1.c20 (clade CD) (HIV-1)
[3] = target: HIV-1 Env of pseudovirus 6811.v7.c18 (clade CD) (HIV-1)
[4] = target: HIV-1 Env of pseudovirus 6545.v4.c1 (clade AC) (HIV-1)
[5] = target: HIV-1 Env of pseudovirus P1981_C5_3 (clade G) (HIV-1)
[6] = target: HIV-1 Env of pseudovirus 231965.c01 (clade D) (HIV-1)
[7] = target: HIV-1 Env of pseudovirus 3103.v3.c10 (clade ACD) (HIV-1)
[8] = target: HIV-1 Env of pseudovirus A07412M1.vrc12 (clade D) (HIV-1)
[9] = target: HIV-1 Env of pseudovirus 231966.c02 (clade D) (HIV-1)
[10] = target: HIV-1 Env of pseudovirus 263-8 (HIV-1)
[11] = target: HIV-1 Env of pseudovirus 0815.v3.c3 (clade ACD) (HIV-1)
[12] = target: HIV-1 Env of pseudovirus X1632_S2_B10 (clade G) (HIV-1)
[13] = target: HIV-1 Env of pseudovirus 6480.v4.c25 (clade CD) (HIV-1)
[14] = target: HIV-1 Env of pseudovirus 620345.c01 (HIV-1)
[15] = target: HIV-1 Env of pseudovirus 6041.v3.c23 (clade AC) (HIV-1)
[16] = target: HIV-1 Env of pseudovirus 6540.v4.c1 (clade AC) (HIV-1)
[17] = target: HIV-1 Env of pseudovirus 3301.v1.c24 (clade AC) (HIV-1)
[18] = target: HIV-1 Env of pseudovirus 89-F1_2_25 (clade CD) (HIV-1)
[19] = target: HIV-1 Env of pseudovirus 3415.v1.c1 (HIV-1)
[20] = target: HIV-1 Env of pseudovirus 3817.v2.c59 (clade CD) (HIV-1)
[21] = target: HIV-1 Env of pseudovirus 3016.v5.c45 (clade D) (HIV-1)
[22] = target: HIV-1 Env of pseudovirus CNE30 (clade BC) (HIV-1)
[23] = target: HIV-1 Env of pseudovirus Q259.d2.17 (clade A) (HIV-1)
[24] = target: HIV-1 Env of pseudovirus P1981_C5_3 (HIV-1)
[25] = target: HIV-1 Env of pseudovirus 1394C9G1(Rev-) (clade C (T/F)) (HIV-1)
[26] = target: HIV-1 Env of pseudovirus Ce2060_G9 (clade C (T/F)) (HIV-1)
[27] = target: HIV-1 Env of pseudovirus 89-F1_2_25 (HIV-1)
[28] = target: HIV-1 Env of pseudovirus 6952.v1.c20 (HIV-1)
[29] = target: HIV-1 Env of pseudovirus Q842.d12 (clade A) (HIV-1)
[30] = target: HIV-1 Env of pseudovirus 3016.v5.c45 (HIV-1)

## N49P7 (antibody)
[1]
  IC50, neutralization titer in TZM.bl cells: 0.081 µg/mL
  IC80, neutralization titer in TZM.bl cells: 0.273 µg/mL
  MPI, neutralization in TZM.bl cells: 100
[2]
  IC50, neutralization titer in TZM.bl cells: 18.4 µg/mL
  IC80, neutralization titer in TZM.bl cells: 38.9 µg/mL
  MPI, neutralization in TZM.bl cells: 91
[3]
  IC50, neutralization titer in TZM.bl cells: 0.229 µg/mL
  IC80, neutralization titer in TZM.bl cells: 0.992 µg/mL
  MPI, neutralization in TZM.bl cells: 100
[4]
  IC50, neutralization titer in TZM.bl cells: 2 µg/mL
  IC80, neutralization titer in TZM.bl cells: 14.7 µg/mL
  MPI, neutralization in TZM.bl cells: 96
[5]
  IC50, neutralization titer in TZM.bl cells: 0.113 µg/mL
  IC80, neutralization titer in TZM.bl cells: 0.274 µg/mL
  MPI, neutralization in TZM.bl cells: 100
[6]
  IC50, neutralization titer in TZM.bl cells: 0.054 µg/mL
  IC80, neutralization titer in TZM.bl cells: 0.193 µg/mL
  MPI, neutralization in TZM.bl cells: 100
[7]
  IC50, neutralization titer in TZM.bl cells: 0.158 µg/mL
  IC80, neutralization titer in TZM.bl cells: 0.509 µg/mL
  MPI, neutralization in TZM.bl cells: 100
[8]
  IC50, neutralization titer in TZM.bl cells: 0.108 µg/mL
  IC80, neutralization titer in TZM.bl cells: 0.645 µg/mL
  MPI, neutralization in TZM.bl cells: 100
[9]
  IC50, neutralization titer in TZM.bl cells: 0.102 µg/mL
  IC80, neutralization titer in TZM.bl cells: 0.43 µg/mL
  MPI, neutralization in TZM.bl cells: 100
[10]
  neutralization IC50: 0.056 µg/mL
  neutralization IC80: 0.201 µg/mL
  neutralization MPI: 100
[11]
  IC50, neutralization titer in TZM.bl cells: 0.016 µg/mL
  IC80, neutralization titer in TZM.bl cells: 0.053 µg/mL
  MPI, neutralization in TZM.bl cells: 100
[12]
  IC50, neutralization titer in TZM.bl cells: 12 µg/mL
  IC80, neutralization titer in TZM.bl cells: 40.4 µg/mL
  MPI, neutralization in TZM.bl cells: 85
[13]
  IC50, neutralization titer in TZM.bl cells: 0.031 µg/mL
  IC80, neutralization titer in TZM.bl cells: 0.113 µg/mL
  MPI, neutralization in TZM.bl cells: 100
[14]
  neutralization IC50: 23.2 µg/mL
  neutralization IC80: 47.9 µg/mL
  neutralization MPI: 82
[15]
  IC50, neutralization titer in TZM.bl cells: 0.047 µg/mL
  IC80, neutralization titer in TZM.bl cells: 0.222 µg/mL
  MPI, neutralization in TZM.bl cells: 100
[16]
  IC50, neutralization titer in TZM.bl cells: 11.7 µg/mL
  IC80, neutralization titer in TZM.bl cells: 33.2 µg/mL
  MPI, neutralization in TZM.bl cells: 92
[17]
  IC50, neutralization titer in TZM.bl cells: 0.025 µg/mL
  IC80, neutralization titer in TZM.bl cells: 0.069 µg/mL
  MPI, neutralization in TZM.bl cells: 100
[18]
  IC50, neutralization titer in TZM.bl cells: 21.6 µg/mL
  IC80, neutralization titer in TZM.bl cells: > 50 µg/mL
  MPI, neutralization in TZM.bl cells: 80
[19]
  neutralization IC50: 0.16 µg/mL
  neutralization IC80: 0.55 µg/mL
  neutralization MPI: 100
[20]
  IC50, neutralization titer in TZM.bl cells: 0.716 µg/mL
  IC80, neutralization titer in TZM.bl cells: 3.73 µg/mL
  MPI, neutralization in TZM.bl cells: 99
[21]
  IC50, neutralization titer in TZM.bl cells: 0.221 µg/mL
  IC80, neutralization titer in TZM.bl cells: 1.04 µg/mL
  MPI, neutralization in TZM.bl cells: 100

## N49P7.1 (antibody)
[1]
  IC50, neutralization titer in TZM.bl cells: 0.129 µg/mL
  IC80, neutralization titer in TZM.bl cells: 0.431 µg/mL
  MPI, neutralization in TZM.bl cells: 100
[2]
  IC50, neutralization titer in TZM.bl cells: 26.3 µg/mL
  IC80, neutralization titer in TZM.bl cells: > 50 µg/mL
  MPI, neutralization in TZM.bl cells: 71
[3]
  IC50, neutralization titer in TZM.bl cells: 0.321 µg/mL
  IC80, neutralization titer in TZM.bl cells: 1.46 µg/mL
  MPI, neutralization in TZM.bl cells: 100
[4]
  IC50, neutralization titer in TZM.bl cells: 1.15 µg/mL
  IC80, neutralization titer in TZM.bl cells: 16 µg/mL
  MPI, neutralization in TZM.bl cells: 92
[5]
  IC50, neutralization titer in TZM.bl cells: 0.216 µg/mL
  IC80, neutralization titer in TZM.bl cells: 0.494 µg/mL
  MPI, neutralization in TZM.bl cells: 100
[6]
  IC50, neutralization titer in TZM.bl cells: 0.106 µg/mL
  IC80, neutralization titer in TZM.bl cells: 0.364 µg/mL
  MPI, neutralization in TZM.bl cells: 100
[7]
  IC50, neutralization titer in TZM.bl cells: 0.229 µg/mL
  IC80, neutralization titer in TZM.bl cells: 0.772 µg/mL
  MPI, neutralization in TZM.bl cells: 100
[8]
  IC50, neutralization titer in TZM.bl cells: 0.232 µg/mL
  IC80, neutralization titer in TZM.bl cells: 1.07 µg/mL
  MPI, neutralization in TZM.bl cells: 100
[9]
  IC50, neutralization titer in TZM.bl cells: 0.203 µg/mL
  IC80, neutralization titer in TZM.bl cells: 0.705 µg/mL
  MPI, neutralization in TZM.bl cells: 100
[10]
  neutralization IC50: 0.104 µg/mL
  neutralization IC80: 0.392 µg/mL
  neutralization MPI: 100
[11]
  IC50, neutralization titer in TZM.bl cells: 0.023 µg/mL
  IC80, neutralization titer in TZM.bl cells: 0.064 µg/mL
  MPI, neutralization in TZM.bl cells: 100
[12]
  IC50, neutralization titer in TZM.bl cells: 17.9 µg/mL
  IC80, neutralization titer in TZM.bl cells: > 50 µg/mL
  MPI, neutralization in TZM.bl cells: 65
[13]
  IC50, neutralization titer in TZM.bl cells: 0.056 µg/mL
  IC80, neutralization titer in TZM.bl cells: 0.192 µg/mL
  MPI, neutralization in TZM.bl cells: 100
[14]
  neutralization IC50: > 50 µg/mL
  neutralization IC80: > 50 µg/mL
  neutralization MPI: 47
[15]
  IC50, neutralization titer in TZM.bl cells: 0.078 µg/mL
  IC80, neutralization titer in TZM.bl cells: 0.366 µg/mL
  MPI, neutralization in TZM.bl cells: 100
[16]
  IC50, neutralization titer in TZM.bl cells: 14.7 µg/mL
  IC80, neutralization titer in TZM.bl cells: > 50 µg/mL
  MPI, neutralization in TZM.bl cells: 75
[17]
  IC50, neutralization titer in TZM.bl cells: 0.041 µg/mL
  IC80, neutralization titer in TZM.bl cells: 0.111 µg/mL
  MPI, neutralization in TZM.bl cells: 100
[18]
  IC50, neutralization titer in TZM.bl cells: 41.6 µg/mL
  IC80, neutralization titer in TZM.bl cells: > 50 µg/mL
  MPI, neutralization in TZM.bl cells: 58
[19]
  neutralization IC50: 0.191 µg/mL
  neutralization IC80: 0.647 µg/mL
  neutralization MPI: 100
[20]
  IC50, neutralization titer in TZM.bl cells: 1.48 µg/mL
  IC80, neutralization titer in TZM.bl cells: 8.36 µg/mL
  MPI, neutralization in TZM.bl cells: 97
[21]
  IC50, neutralization titer in TZM.bl cells: 0.559 µg/mL
  IC80, neutralization titer in TZM.bl cells: 2.54 µg/mL
  MPI, neutralization in TZM.bl cells: 100

## N49P7.2 (antibody)
[22]
  IC50: 0.362 µg/mL
  IC80: 1.2 µg/mL
  MPI: 100
[23]
  IC50: 38.5 µg/mL
  IC80: > 50 µg/mL
  MPI: 54
[24]
  IC50: 0.258 µg/mL
  IC80: 0.716 µg/mL
  MPI: 100
[25]
  IC50: > 50 µg/mL
  IC80: > 50 µg/mL
  MPI: 20
[26]
  IC50: 0.821 µg/mL
  IC80: 2.81 µg/mL
  MPI: 100
[27]
  IC50: > 50 µg/mL
  IC80: > 50 µg/mL
  MPI: 18
[10]
  IC50: 0.095 µg/mL
  IC80: 0.641 µg/mL
  MPI: 100
[28]
  IC50: > 50 µg/mL
  IC80: > 50 µg/mL
  MPI: 0
[14]
  IC50: > 50 µg/mL
  IC80: > 50 µg/mL
  MPI: 0
[19]
  IC50: 0.381 µg/mL
  IC80: 1.58 µg/mL
  MPI: 100
[29]
  IC50: 0.045 µg/mL
  IC80: 0.2 µg/mL
  MPI: 100
[30]
  IC50: 2.77 µg/mL
  IC80: 23.9 µg/mL
  MPI: 90
